Results from patent US20120231006A1 (Amgen, published 2012).

Tests used:
[1] = biological target: T1, hOrai1-mOrai1 ECL2 (SKPPA) protein (human/mouse chimera, UniProt Q96D31 1-301); experiment: FACS, 293EBNA, RFI-POC grade; set-up: concentration or dose not given beside the values
T1 construct: also called Ch

human Orai1 = human Orai1 (human, UniProt Q96D31 1-301); experiment: cell-based or functional assay
[2] = biological target: T2, hOrai1-mOrai1 ECL2 (RPTSKPPA) protein (human/mouse chimera, UniProt Q96D31 1-301); experiment: FACS, 293EBNA transfectants [D00032 FIG. 17B]
T2 construct: also called Ch
Method: (§1) FACS binding analysis. Transfected 293EBNA cells transiently expressed hOrai1-mOrai1 ECL2 or mOrai1-hOrai1 ECL2 chimera. The transfected cells were harvested at 48 hours post-transfection. Cells transfected with pcDNA3.1 were used as negative controls. Cells were washed once with ice-cold 1×PBS, resuspended in ice-cold FACS buffer (1×D-PBS+2% goat serum), and 2×10⁵ cells in 100 μL were stained per antibody combination. All antibody incubation steps were performed on ice for 1 hour. […] Next, the unlabelled antibody was detected using goat F(ab′)₂ anti-mouse or anti-human IgG-phycoerythrin (IgG-PE), followed by a wash with 200 μL of ice-cold FACS buffer before flow cytometry analysis. Unstained cells and cells stained with detecting antibodies were used as negative controls. The values of relative level of fluorescence were calculated using FCS Express (De Novo Software) and mean values were calculated using log-transformed data (geometric mean). […]
(§2) Representative results of FACS analysis of binding to the mutant hOrai1-mOrai1 ECL2 chimera described above by exemplary anti-hOrai1 antibodies of the present invention are shown in FIG. 17A-D, Table 10A and Table 10B below. Table 10A (Campaign 1) and Table 10B (Campaign 2) show the gain in binding ability of exemplary monoclonal antibodies to hOrai 1-mOrai 1 ECL2 chimera mutants as determined by FACS.

[3] = biological target: T3, hOrai1-mOrai1 ECL2 (…) protein (human/mouse chimera, UniProt Q96D31 1-301); experiment: FACS, 293EBNA transfectants [D00032 FIG. 17B]
T3 construct: also called Ch
Method: as §1, §2

T2 sequence (Q96D31 other isoform, or with tags, fused parts or gaps): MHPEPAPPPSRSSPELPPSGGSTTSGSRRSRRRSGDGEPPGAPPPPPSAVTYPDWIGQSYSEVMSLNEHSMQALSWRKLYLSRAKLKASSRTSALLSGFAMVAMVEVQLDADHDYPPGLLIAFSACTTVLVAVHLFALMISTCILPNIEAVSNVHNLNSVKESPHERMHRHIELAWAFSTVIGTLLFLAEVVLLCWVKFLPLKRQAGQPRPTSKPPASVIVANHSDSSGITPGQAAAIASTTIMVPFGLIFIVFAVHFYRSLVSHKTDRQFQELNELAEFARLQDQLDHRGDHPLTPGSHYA
human Orai1, sequence (Q96D31 whole entry): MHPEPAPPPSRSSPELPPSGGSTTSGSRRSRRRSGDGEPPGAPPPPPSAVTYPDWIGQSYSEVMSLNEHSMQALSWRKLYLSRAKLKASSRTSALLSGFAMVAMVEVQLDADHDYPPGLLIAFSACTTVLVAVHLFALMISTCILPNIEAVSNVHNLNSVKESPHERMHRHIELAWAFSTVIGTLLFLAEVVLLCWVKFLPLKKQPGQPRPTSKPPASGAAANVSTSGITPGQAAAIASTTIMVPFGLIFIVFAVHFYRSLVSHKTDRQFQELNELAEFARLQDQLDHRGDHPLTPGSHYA
T1 sequence (Q96D31 other isoform, or with tags, fused parts or gaps): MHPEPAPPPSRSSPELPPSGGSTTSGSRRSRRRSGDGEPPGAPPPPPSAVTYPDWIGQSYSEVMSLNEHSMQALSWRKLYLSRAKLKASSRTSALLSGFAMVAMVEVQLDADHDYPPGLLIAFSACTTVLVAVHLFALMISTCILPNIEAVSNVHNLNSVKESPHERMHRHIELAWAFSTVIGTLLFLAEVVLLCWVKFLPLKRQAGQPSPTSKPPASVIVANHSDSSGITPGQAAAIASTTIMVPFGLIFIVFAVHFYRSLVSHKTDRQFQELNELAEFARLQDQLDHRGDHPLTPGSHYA
T3 sequence (Q96D31 other isoform, or with tags, fused parts or gaps): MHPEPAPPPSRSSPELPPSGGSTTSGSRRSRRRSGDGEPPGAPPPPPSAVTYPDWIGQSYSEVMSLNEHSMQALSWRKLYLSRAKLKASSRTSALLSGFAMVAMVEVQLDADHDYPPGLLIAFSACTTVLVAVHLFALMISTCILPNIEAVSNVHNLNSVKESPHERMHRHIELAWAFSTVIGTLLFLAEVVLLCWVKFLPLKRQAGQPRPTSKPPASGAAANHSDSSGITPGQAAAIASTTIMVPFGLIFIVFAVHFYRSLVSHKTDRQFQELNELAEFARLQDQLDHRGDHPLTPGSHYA

- percent of control (POC) of FACS Geo Mean [1]: 1 to 5%
- IC50, NFAT-mediated luciferase assay (FIG. 6C) (human Orai1): 1800 nM
- binding result [2]: binds
- binding result [3]: binds
B1: mAb 2B4.1 (antibody, human IgG2, lambda, V domains shown)
VH: QVQLVQSGAEVKKPGASVKVSCKASGYTFTDYYMHWVRQAPGQGLEWMGWINPNSGGTNYVQKFQDRVTMTRDTSITTAYMELTRLRSDDTAVYYCAREEGDYGMDVWGQGTTVTVSS
VL: QSVLTQPPSVSGAPGQRVTISCTGSNSNIGTGYDVHWYQKLPGTAPRLLIYSHFNRPSGVPDRFSGSTSGTSASLAITGLQAEDEADYYCQSYDSSLSGSVFGGGTKLTVLG
